Results on 4 molecules are retold here after patent publication US20260207757A1 (IGF ONCOLOGY, published 2026).

In assay [1] the target is T1, type 1 IGF receptor (IGF-1R) (human, UniProt P08069 31-1367).
T1 construct: whole, on cells; also called IGF-1 receptor; CD221
The assay is described as follows: competition binding to IGF receptors against radioactive wild type IGF. The procedure: 200 ul of each of these was mixed rapidly with 1.8 ml of refold buffer. Refold buffer was 1.4 M urea, 100 mM glycine, 0.5 M NaCl, 19% ethanol, 0.5 mM GSSG, 4 mM GSH, pH 9.5.

In the next assay the target is dihydrofolate reductase. The assay is described as follows: cell-based or functional assay.

T1 sequence (P08069 31-1367): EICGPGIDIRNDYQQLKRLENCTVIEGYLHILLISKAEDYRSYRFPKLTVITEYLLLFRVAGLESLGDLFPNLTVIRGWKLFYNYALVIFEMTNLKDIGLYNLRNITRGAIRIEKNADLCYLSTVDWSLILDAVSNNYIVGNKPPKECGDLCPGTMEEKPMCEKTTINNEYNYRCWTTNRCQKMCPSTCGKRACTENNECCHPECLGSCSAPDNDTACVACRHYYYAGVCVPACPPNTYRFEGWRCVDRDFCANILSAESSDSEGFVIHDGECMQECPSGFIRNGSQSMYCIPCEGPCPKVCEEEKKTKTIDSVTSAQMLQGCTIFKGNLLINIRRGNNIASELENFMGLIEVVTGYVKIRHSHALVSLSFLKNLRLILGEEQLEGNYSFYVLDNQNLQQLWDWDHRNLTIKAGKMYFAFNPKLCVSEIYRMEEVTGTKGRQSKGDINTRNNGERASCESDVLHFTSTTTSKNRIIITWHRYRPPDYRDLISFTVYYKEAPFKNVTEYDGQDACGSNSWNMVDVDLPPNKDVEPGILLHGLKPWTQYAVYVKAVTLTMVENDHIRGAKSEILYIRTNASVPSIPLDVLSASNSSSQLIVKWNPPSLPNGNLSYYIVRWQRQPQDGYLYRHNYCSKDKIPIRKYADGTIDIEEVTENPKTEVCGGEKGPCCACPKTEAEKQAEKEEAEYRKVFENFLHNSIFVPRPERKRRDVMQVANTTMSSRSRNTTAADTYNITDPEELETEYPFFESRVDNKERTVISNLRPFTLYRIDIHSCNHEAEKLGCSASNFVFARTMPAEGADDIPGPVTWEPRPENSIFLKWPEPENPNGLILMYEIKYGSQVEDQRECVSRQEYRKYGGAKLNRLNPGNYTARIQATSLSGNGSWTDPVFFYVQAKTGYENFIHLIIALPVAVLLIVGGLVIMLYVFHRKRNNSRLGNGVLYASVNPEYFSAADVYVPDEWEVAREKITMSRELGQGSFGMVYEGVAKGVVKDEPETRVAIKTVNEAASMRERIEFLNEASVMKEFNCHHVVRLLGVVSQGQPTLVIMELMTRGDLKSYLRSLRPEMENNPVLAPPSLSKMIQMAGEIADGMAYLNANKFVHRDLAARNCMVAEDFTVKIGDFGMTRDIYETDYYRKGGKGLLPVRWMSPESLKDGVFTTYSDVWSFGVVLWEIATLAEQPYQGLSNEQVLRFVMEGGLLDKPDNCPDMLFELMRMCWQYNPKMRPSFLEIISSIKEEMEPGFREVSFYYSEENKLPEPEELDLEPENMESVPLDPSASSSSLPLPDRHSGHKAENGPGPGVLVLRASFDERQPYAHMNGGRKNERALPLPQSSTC

B1: 785IGF (ligand)
chain: MVKQIESKTAFQEALDAAGDKLVVVDFSATWCGHCKMIKPFFHSLSEKYSNVIFLEVDVDDSQDVASESEVKSMPTFQFFKKGQKVGEFSGANKEKLEATINELVGSKSGHHHHHHSAKGFVNQHLCGSHLVEALYLVCGDRGFYFNKPTGYGSSSRRAPQTGIVDECCFRSCDLRRLEMYCAPLKPAKSA
notes: also called mutTrx-IGF132
With B1, in assay [1], the dissociation constant Kd is around 40 nM.

B2: 403IGF (ligand)
chain: MTSGHHHHHHSAGVNGFVNQHLCGSHLVEALYLVCGDRGFYFNKPTGYGSSSRRAPQTGIVDECCFRSCDLRRLEMYCAPLKPAKSA
notes: T0001 describes it as His6-IGF; also called His6-IGF
On to B2, for which the dissociation constant Kd in assay [1] is around 2 nM.

B3: 764IGF (ligand)
chain: MVKGKHHHHHHNGKGKSKFVNQHLCGSHLVEALYLVCGDRGFYFNKPTGYGSSSRRAPQTGIVDECCFRSCDLRRLEMYCAPLKPAKSA
notes: also called His6-K5-IGF132
On to B3, for which, in assay [1], the Kd was around 100 nM.

B4: LR3IGF-MTX (ligand)
chain: MFPAMPLSSLFVNGPRTLCGALVDALQFVCGDRGFYFNKPTGYGSSSRRAPQTGIVDECCFRSCDLRRLEMYCAPLKPAKSEA
modifications: methotrexate on amino groups (3 lysine side chains and the N-terminal amino group available), MTX:protein ratio of 2.8
As for B4, the “IC50 (inhibition of dihydrofolate reductase activity)” value with dihydrofolate reductase was determined as 99 nEq/L.
